Laboratory results as given in US20090291083A1, “BARB4 TARGET, ANTIBODY DESIGNATED BARB4, BARB4 RELATED ANTIBODIES, AND METHODS OF MAKING AND USING SAME” (PATRYS LIMITED, priority 2008, published 2009).

Tests used:
Experiment in all cases: Immunohistochemistry (IHC) with biotinylated BARB4 on malignant tissue
Type in all cases: binding, human
Malignant Tissues: Lung = conditions: positive/negative
Method: (§1) Immunohistochemistry with human IgG on human tissue naturally results in high background staining. Accordingly, BARB4 was labeled with biotin to reduce background.
(§2) BARB4 antibody and an unrelated commercial IgG control (Chrompure IgG, Dianova) where labelled with “EZ-Link Maleimide-PEO Solid Phase Biotinylation Kit” from Pierce (Cat-# 21930) and Immunohistochemistry was initiated on different tumor tissue. Parrafin embedded tissue was first deparaffinized by treatment with Xylene 1 for 5 min, Xylene 2 for 5 min, followed by 100% Ethanol 1 for 5 min, 100% Ethanol 2 for 5 min, 70 ml Methanol+500 μl H2O2 for 7 min, 90% Ethanol 1 for 3 min, 90% Ethanol 2 for 3 min, 80% Ethanol 1 for 3 min, 80% Ethanol 2 for 3 min, 70% Ethanol 1 for 3 min, 70% Ethanol 2 for 3 min, and then washed three times with distilled H2O. (1 and 2 mean that the tissues were treated 2 times with the same alcohol, one after the another, in two different tanks.) Tissue was then heated in Citric acid, pH 5,5 in a water-bath at 99.9° C. for 20 min, placed in Tris/NaCl (Tris, 0.6 g/l and NaCl 8.1 g/l, pH 7.4) for 5 min, block with 0.5% BSA in PBS for 60 min, and then washed three times with Tris/NaCl (Tris, 0.6 g/l and NaCl 8.1 g/l, pH 7.4). Primary antibody (150 μl per microscope slide) was added, or a negative control biotinylated isotype matched control human antibody (Chrompure IgG, Dianova, Germany) or a positive controlanti-cytokeratin antibody, and incubated for 30 min in a humidified chamber at 37° C. Tissue was washed three times with Tris/NaCl (Tris, 0.6 g/l and NaCl 8.1 g/l, pH 7.4). Secondary antibody: (150 […]) was subsequently added and incubated for 30 min in a humidified chamber at room temperature (for biotinylated antibodies: NeurtrAvidin 1:100 in PBS), washed three times with Tris/NaCl (Tris, 0.6 g/l and NaCl 8.1 g/l, pH7.4), placed in PBS for 10 min. Tiusse was subsequently incubated with diaminobenzidine (0.05%)-hydrogen peroxide (0.02%) (150 μl per microscope slide) (Sigma, Taufkirchen, München, Germany) for 10 min, washed three times with H2O, washed once with distilled H2O, incubated with hematoxylin/eosin for 5 min, and placed under running tap water 10-15 min. Tissue was then washed again with distilled H2O, and the slides covered with Aquatex (Merck Bioscience).

[1] = tested on: Malignant Tissues: Esophagus; conditions: positive/negative
Method: as §1, §2

[2] = tested on: Malignant Tissues: Breast; conditions: positive/negative
Method: as §1, §2

[3] = tested on: Malignant Tissues: Stomach; conditions: positive/negative
Method: as §1, §2

[4] = tested on: Malignant Tissues: Melanoma; conditions: Metastases of malignant melanoma, positive/negative
Method: as §1, §2

Malignant Tissues: Colon = conditions: positive/negative
Method: as §1, §2

[5] = tested on: Malignant Tissues: Prostrate; conditions: Adeno, positive/negative
Method: as §1, §2

B1: BARB4: human IgG antibody produced by hybridoma DSMZ Deposit No. DSM ACC2876; heavy chain SEQ ID NOs:1, 3, 5, 7, light chain SEQ ID NO:9 (antibody, V domains shown)
VH: QVQLVESGGGVVQPGRSLRLSCAASGFRFTTHGMHWVRQAPGKGLEWVAVISYNGRNKYYADYVNGRFTISRDDSRDTVFLQMNSLRPEDTAMYYCAKVRGDGYGDYGYFDYWGHGTLVSVSS
VL: QSALTQPRSVSGSPGQSVTISCTGTYNYVSWYQQHPGKAPKLMIFDVSRRSSGVPDRFSGSKSGNTASLTISGLQAEDEADYYCCSYGGTYLYVFGTGTTVTVLGQ
For B1, the “Barb 4 +/−” value (Malignant Tissues: Lung; Carcinoid (neuron-endocrine)) was 1/0, the “Barb 4 +/−” value (Malignant Tissues: Lung; Lymph Node Metastasis) was 1/0 and the “Barb 4 +/−” value (Malignant Tissues: Lung; Squamous cell) was 2/0. For the same molecule, the “Barb 4 +/−” value ([1]; Adeno (Barrett Carcinoma)) was 1/0, the “Barb 4 +/−” value ([1]; Squamous cell) was 1/0 and the “Barb 4 +/−” value ([2]; Invasive ductal) was 2/0. For the same molecule, the “Barb 4 +/−” value ([2]; Lung Metastasis) was 1/0, the “Barb 4 +/−” value ([2]; Lymph Node Metastasis) was 1/0 and the “Barb 4 +/−” value ([3]; Adeno (Cardio, intestinal)) was 1/0. The “Barb 4 +/−” value ([3]; Adeno (intestinal)) was 2/0, the “Barb 4 +/−” value [4] was 5/0 and the “Barb 4 +/−” value (Malignant Tissues: Colon; Adeno) was 1/0. The “Barb 4 +/−” value (Malignant Tissues: Colon; Liver Metastasis) was 2/0 and the “Barb 4 +/−” value [5] was 1/0.
